According to doi:10.1101/2024.10.14.618141 (bioRxiv, 2024):

B1: CDK12(KiD)/Cyclin K complex (complex)
chain 1: not shown
chain 2: MKENKENSSPSVTSANLDHTKPCWYWDKKDLAHTPSQLEGLDPATEARYRREGARFIFDVGTRLGLHYDTLATGIIYFHRFYMFHSFKQFPRYVTGACCLFLAGKVEETPKKCKDIIKTARSLLNDVQFGQFGDDPKEEVMVLERILLQTIKFDLQVEHPYQFLLKYAKQLKGDKNKIQKLVQMAWTFVNDSLCTTLSLQWEPEIIAVAVMYLAGRLCKFEIQEWTSKPMYRRWWEQFVQDVPVDVLEDICHQILDLYSQGKQQMPHHTPHQLQQPPSLQPTPQVPQVQQSQPSQSSEPSQPQQKDPQQPAQQQQPAQQPKKPSPQPSSPRQVKRAVVVSPKEENKAAEPPPPKIPKIETTHPPLPPAHPPPDRKPPLAAALGEAEPPGPVDATDLPKVQIPPPAHPAPVHQPPPLPHRPPPPPPSSYMTGMSTTSSYMSGEGYQSLQSMMKTEGPSYGALPPAYGPPAHLPYHPHVYPPNPPPPPVPPPPASFPPPAIPPPTPGYPPPPPTYNPNFPPPPPRLPPTHAVPPHPPPGLGLPPASYPPPAVPPGGQPPVPPPIPPPGMPPVGGLGRAAWMR
B2: Flag-GST-RPB1-CTD(1586-1971) (domain or fragment)
chain: GGAMSPSYSPTSPAYEPRSPGGYTPQSPSYSPTSPSYSPTSPSYSPTSPNYSPTSPSYSPTSPSYSPTSPSYSPTSPSYSPTSPSYSPTSPSYSPTSPSYSPTSPSYSPTSPSYSPTSPSYSPTSPSYSPTSPSYSPTSPSYSPTSPSYSPTSPSYSPTSPNYSPTSPNYTPTSPSYSPTSPSYSPTSPNYTPTSPNYSPTSPSYSPTSPSYSPTSPSYSPSSPRYTPQSPTYTPSSPSYSPSSPSYSPTSPKYTPTSPSYSPSSPEYTPTSPKYSPTSPKYSPTSPKYSPTSPTYSPTTPKYSPTSPTYSPTSPVYTPTSPKYSPTSPTYSPTSPKYSPTSPTYSPTSPKGSTYSPTSPGYSPTSPTYSLTSPAISPDDSDEEN

Columns and labels:
Test in all cases: pull-down
[1] = target: PAF1C-YY/AA (PAF1C containing CDC73-YY/AA) (human, UniProt Q6PD62;Q6P1J9;Q8WVC0;Q8N7H5;Q9GZS3, Y290A | Y293A)
[2] = target: PAF1 complex (five-subunit PAF1C, WT) (human, UniProt Q6PD62;Q6P1J9;Q8WVC0;Q8N7H5;Q9GZS3)
[3] = target: CDK12/Cyclin K complex, full-length (WT) CDK12 (human, UniProt Q9NYV4;O75909)
Chain of CDK12/Cyclin K complex, full-length (WT) CDK12 (Q9NYV4 whole entry, one chain of several): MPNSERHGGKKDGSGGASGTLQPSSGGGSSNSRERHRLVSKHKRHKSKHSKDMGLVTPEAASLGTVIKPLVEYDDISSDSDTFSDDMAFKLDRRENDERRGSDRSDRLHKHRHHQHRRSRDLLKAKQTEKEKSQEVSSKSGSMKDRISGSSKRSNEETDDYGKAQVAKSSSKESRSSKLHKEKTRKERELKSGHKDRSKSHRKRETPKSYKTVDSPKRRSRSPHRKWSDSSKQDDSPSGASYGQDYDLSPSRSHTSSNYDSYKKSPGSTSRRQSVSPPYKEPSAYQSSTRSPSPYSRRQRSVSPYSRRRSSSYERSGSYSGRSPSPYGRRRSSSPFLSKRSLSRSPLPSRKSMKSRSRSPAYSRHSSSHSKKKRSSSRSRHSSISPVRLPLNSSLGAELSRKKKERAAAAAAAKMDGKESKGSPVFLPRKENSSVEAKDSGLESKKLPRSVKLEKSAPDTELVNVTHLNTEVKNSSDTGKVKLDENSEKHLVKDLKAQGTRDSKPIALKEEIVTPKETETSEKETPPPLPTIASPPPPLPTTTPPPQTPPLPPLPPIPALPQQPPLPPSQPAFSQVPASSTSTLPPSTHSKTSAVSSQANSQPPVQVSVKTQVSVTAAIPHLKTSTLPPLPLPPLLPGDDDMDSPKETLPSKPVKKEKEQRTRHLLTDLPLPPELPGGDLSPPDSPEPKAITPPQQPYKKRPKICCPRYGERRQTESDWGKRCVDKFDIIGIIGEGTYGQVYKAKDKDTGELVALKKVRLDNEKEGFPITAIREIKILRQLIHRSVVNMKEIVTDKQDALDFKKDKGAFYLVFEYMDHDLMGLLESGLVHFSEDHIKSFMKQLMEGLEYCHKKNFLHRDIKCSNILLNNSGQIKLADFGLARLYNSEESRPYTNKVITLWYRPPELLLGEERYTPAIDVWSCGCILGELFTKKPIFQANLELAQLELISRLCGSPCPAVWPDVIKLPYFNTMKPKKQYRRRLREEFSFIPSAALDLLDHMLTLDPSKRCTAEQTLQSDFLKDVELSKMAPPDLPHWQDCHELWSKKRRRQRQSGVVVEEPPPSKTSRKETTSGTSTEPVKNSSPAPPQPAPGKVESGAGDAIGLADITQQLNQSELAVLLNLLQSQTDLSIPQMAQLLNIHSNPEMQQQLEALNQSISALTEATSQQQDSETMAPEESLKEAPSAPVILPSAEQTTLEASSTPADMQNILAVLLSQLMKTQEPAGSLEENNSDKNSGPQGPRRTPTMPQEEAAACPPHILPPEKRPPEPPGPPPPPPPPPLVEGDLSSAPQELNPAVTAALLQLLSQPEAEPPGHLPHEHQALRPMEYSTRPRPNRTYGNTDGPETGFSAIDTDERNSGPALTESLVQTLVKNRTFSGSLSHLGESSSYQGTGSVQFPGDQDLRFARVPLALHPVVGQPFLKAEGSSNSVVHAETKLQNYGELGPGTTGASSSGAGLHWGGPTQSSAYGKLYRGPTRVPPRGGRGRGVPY

Row | Binder | binding result [1] | binding result [2] | binding result [3]
1 | B1 | binds | binds | –
2 | B2 | – | – | binds
